Measured values as given in article PMC10397247.
One block for each binder: values may come before it.

Experiments:
[1] = biological target: T1, 4H3414-bH; assay: two-hybrid library CCNG1;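 note: natural log of median RNA to DNA barcode read ratio; higher means stronger binding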
T1 chain: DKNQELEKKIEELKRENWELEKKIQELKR

[2] = biological target: T2, 4H584-bH; assay: two-hybrid library CCNG1;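 note: natural log of median RNA to DNA barcode read ratio; higher means stronger binding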
T2 chain: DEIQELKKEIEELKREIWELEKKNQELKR

[3] = biological target: T3, 4H850-bH; assay: two-hybrid library CCNG1;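 note: natural log of median RNA to DNA barcode read ratio; higher means stronger binding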
T3 chain: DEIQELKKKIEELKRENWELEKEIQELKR

[4] = biological target: T4, 4H619-bH; assay: two-hybrid library CCNG1;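 note: natural log of median RNA to DNA barcode read ratio; higher means stronger binding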
T4 chain: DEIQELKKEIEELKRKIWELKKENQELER

[5] = biological target: T5, 4H1804-bH; assay: two-hybrid library CCNG1;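 note: natural log of median RNA to DNA barcode read ratio; higher means stronger binding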
T5 chain: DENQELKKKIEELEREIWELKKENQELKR

[6] = biological target: T6, 4H1710-bH; assay: two-hybrid library CCNG1;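 note: natural log of median RNA to DNA barcode read ratio; higher means stronger binding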
T6 chain: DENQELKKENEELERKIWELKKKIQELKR

[7] = biological target: T7, 4H3172-bH; assay: two-hybrid library CCNG1
T7 chain: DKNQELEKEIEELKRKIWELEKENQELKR

[8] = biological target: T8, 4H1629-bH; assay: two-hybrid library CCNG1
T8 chain: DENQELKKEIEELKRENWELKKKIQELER

[9] = biological target: T9, O6-bP; assay: two-hybrid library CCNG1
T9 chain: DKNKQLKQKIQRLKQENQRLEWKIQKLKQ

[10] = biological target: T10, 4H3631-bH; assay: two-hybrid library CCNG1
T10 chain: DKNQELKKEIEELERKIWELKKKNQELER

[11] = biological target: T11, 4H3129-bH; assay: two-hybrid library CCNG1
T11 chain: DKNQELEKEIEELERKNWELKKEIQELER

[12] = biological target: T12, 4H1985-bH; assay: two-hybrid library CCNG1
T12 chain: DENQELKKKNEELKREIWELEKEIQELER

[13] = biological target: T13, 4H3974-bH; assay: two-hybrid library CCNG1
T13 chain: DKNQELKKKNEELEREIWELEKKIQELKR

[14] = biological target: T14, 4H496-bA; assay: two-hybrid library CCNG1
T14 chain: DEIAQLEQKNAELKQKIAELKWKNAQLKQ

[15] = biological target: T15, P8A-bH; assay: two-hybrid library CCNG1
T15 chain: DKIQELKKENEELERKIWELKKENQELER

[16] = biological target: T16, 4H3817-bH; assay: two-hybrid library CCNG1
T16 chain: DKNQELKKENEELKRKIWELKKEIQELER

[17] = biological target: T17, 4H570-bH; assay: two-hybrid library CCNG1
T17 chain: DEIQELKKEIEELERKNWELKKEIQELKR

[18] = biological target: T18, 4H3638-bH; assay: two-hybrid library CCNG1
T18 chain: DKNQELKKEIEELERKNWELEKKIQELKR

[19] = biological target: T19, 4H906-bH; assay: two-hybrid library CCNG1
T19 chain: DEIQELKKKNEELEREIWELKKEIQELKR

[20] = biological target: T20, 4H1544-bH; assay: two-hybrid library CCNG1
T20 chain: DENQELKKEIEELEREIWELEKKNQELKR

[21] = biological target: T21, 4H3592-bA; assay: two-hybrid library CCNG1
T21 chain: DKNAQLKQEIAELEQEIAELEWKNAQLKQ

[22] = biological target: T22, 4H3613-bH; assay: two-hybrid library CCNG1
T22 chain: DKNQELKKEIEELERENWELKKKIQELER

[23] = biological target: T23, 4H3628-bH; assay: two-hybrid library CCNG1
T23 chain: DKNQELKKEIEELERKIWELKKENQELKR

[24] = biological target: T24, 4H3858-bH; assay: two-hybrid library CCNG1
T24 chain: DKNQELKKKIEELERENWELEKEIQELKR

[25] = biological target: T25, 4H1899-bH; assay: two-hybrid library CCNG1
T25 chain: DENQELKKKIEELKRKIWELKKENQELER

[26] = biological target: T26, 4H1449-bH; assay: two-hybrid library CCNG1
T26 chain: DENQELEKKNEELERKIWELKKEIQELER

[27] = biological target: T27, 4H3627-AA; assay: two-hybrid library CCmax; settings: mean of both orientations
T27 chain: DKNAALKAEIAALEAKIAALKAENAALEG

[28] = biological target: T28, 4H717-AA; assay: two-hybrid library CCmax; settings: mean of both orientations
T28 chain: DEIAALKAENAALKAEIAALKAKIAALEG

[29] = biological target: T29, 4H429-AA; assay: two-hybrid library CCmax; settings: mean of both orientations
T29 chain: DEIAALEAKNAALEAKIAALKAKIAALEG

[30] = biological target: T30, 4H2883-AA; assay: two-hybrid library CCmax; settings: mean of both orientations
T30 chain: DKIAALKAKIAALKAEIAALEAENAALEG

[31] = biological target: T31, 4H3112-AA; assay: two-hybrid library CCmax; settings: mean of both orientations
T31 chain: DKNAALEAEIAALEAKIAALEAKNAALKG

[32] = biological target: T32, 4H3844-AA; assay: two-hybrid library CCmax; settings: mean of both orientations
T32 chain: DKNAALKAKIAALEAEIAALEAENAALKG

[33] = biological target: T33, N6-AA; assay: two-hybrid library CCmax; settings: mean of both orientations
T33 chain: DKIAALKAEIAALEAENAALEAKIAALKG

[34] = biological target: T34, 4H566-AA; assay: two-hybrid library CCmax; settings: mean of both orientations
T34 chain: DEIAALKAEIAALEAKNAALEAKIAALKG

[35] = biological target: T35, 4H780-AA; assay: two-hybrid library CCmax; settings: mean of both orientations
T35 chain: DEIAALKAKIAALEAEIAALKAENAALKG

[36] = biological target: T36, N5-AA; assay: two-hybrid library CCmax; settings: mean of both orientations
T36 chain: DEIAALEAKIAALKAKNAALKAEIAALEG

[37] = biological target: T37, 4H2754-AA; assay: two-hybrid library CCmax; settings: mean of both orientations
T37 chain: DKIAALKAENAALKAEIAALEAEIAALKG

[38] = biological target: T38, 4H2729-AA; assay: two-hybrid library CCmax
T38 chain: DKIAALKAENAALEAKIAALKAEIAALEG

[39] = biological target: T39, 4H2944-AA; assay: two-hybrid library CCmax; settings: mean of both orientations
T39 chain: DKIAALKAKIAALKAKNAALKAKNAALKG

[40] = biological target: T40, 4H906-AA; assay: two-hybrid library CCmax; settings: mean of both orientations
T40 chain: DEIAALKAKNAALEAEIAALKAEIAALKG

[41] = biological target: T41, 4H993-AA; assay: two-hybrid library CCmax; settings: mean of both orientations
T41 chain: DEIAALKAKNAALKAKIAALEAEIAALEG

[42] = biological target: T42, 4H342-AA; assay: two-hybrid library CCmax; settings: mean of both orientations
T42 chain: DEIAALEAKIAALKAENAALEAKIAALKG

[43] = biological target: T43, 4H605-AA; assay: two-hybrid library CCmax; settings: mean of both orientations
T43 chain: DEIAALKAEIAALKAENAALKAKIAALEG

[44] = biological target: T44, 4H3655-AA; assay: two-hybrid library CCmax; settings: mean of both orientations
T44 chain: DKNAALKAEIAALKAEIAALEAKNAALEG

[45] = biological target: T45, 4H2837-AA; assay: two-hybrid library CCmax; settings: mean of both orientations
T45 chain: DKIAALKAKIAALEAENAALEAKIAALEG

[46] = biological target: T46, 4H678-AA; assay: two-hybrid library CCmax; settings: mean of both orientations
T46 chain: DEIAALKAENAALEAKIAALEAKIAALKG

[47] = biological target: T47, 4H3343-AA; assay: two-hybrid library CCmax; settings: mean of both orientations
T47 chain: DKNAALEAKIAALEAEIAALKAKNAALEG

[48] = biological target: T48, 4H881-AA; assay: two-hybrid library CCmax; settings: mean of both orientations
T48 chain: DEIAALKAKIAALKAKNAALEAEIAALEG

[49] = biological target: T49, 4H335-AA; assay: two-hybrid library CCmax; settings: mean of both orientations
T49 chain: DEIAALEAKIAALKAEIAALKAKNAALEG

[50] = biological target: T50, 4H317-AA; assay: two-hybrid library CCmax; settings: mean of both orientations
T50 chain: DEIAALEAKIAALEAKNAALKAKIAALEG

[51] = biological target: T51, 4H3921-AA; assay: two-hybrid library CCmax; settings: mean of both orientations
T51 chain: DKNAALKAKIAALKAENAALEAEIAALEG

[52] = biological target: T52, 4H2949-AA; assay: two-hybrid library CCmax; settings: mean of both orientations
T52 chain: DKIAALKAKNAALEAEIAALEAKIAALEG

[53] = biological target: T53, 4H48-AA; assay: two-hybrid library CCmax; settings: mean of both orientations
T53 chain: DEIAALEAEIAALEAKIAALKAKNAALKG

[54] = biological target: T54, 4H3606-AA; assay: two-hybrid library CCmax; settings: mean of both orientations
T54 chain: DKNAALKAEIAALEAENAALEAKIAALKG

[55] = biological target: T55, 4H454-AA; assay: two-hybrid library CCmax; settings: mean of both orientations
T55 chain: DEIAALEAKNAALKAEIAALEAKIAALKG

[56] = biological target: T56, 4H794-AA; assay: two-hybrid library CCmax; settings: mean of both orientations
T56 chain: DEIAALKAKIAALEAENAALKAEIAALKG

[57] = biological target: T57, 4H3427-AA; assay: two-hybrid library CCmax; settings: mean of both orientations
T57 chain: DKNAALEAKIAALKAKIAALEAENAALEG

interaction score [1]: -1.1
interaction score [2]: 0.366
interaction score [3]: 1.03
interaction score [4]: 0.577
interaction score [5]: -1.81
interaction score [6]: -2.67
interaction score [7]: -0.534
interaction score [8]: -0.954
interaction score [9]: 1.7
interaction score [10]: -0.299
interaction score [11]: -0.581
interaction score [12]: -0.16
interaction score [13]: 0.236
interaction score [14]: -2.88
interaction score [15]: 0.887
interaction score [16]: -0.618
interaction score [17]: -1.69
interaction score [18]: -1.09
interaction score [19]: -0.794
Binder: DENQELKKEIEELKRENWELKKKIQELER [4H1629-bH]

interaction score [1]: -0.216
interaction score [20]: -0.787
interaction score [2]: -0.0853
interaction score [3]: -0.674
interaction score [4]: -2.2
interaction score [5]: -0.461
interaction score [6]: -0.366
interaction score [7]: -0.0351
interaction score [21]: -0.126
interaction score [22]: -0.131
interaction score [8]: -0.891
interaction score [23]: -0.479
interaction score [24]: -0.658
interaction score [10]: 0.733
interaction score [11]: -0.319
interaction score [25]: -0.126
interaction score [12]: -0.843
interaction score [13]: 1.15
interaction score [16]: -0.644
interaction score [17]: -0.108
interaction score [18]: -0.0745
interaction score [19]: -1.2
interaction score [26]: -1.25
Binder: DENQELEKKNEELERKIWELKKEIQELER [4H1449-bH]

interaction score [27]: 1.22
interaction score [28]: 1.12
interaction score [29]: 1.68
interaction score [30]: -1.1
interaction score [31]: -0.662
interaction score [32]: -1.03
interaction score [33]: 1.56
interaction score [34]: 0.192
interaction score [35]: -1.31
interaction score [36]: 0.643
interaction score [37]: 2.26
interaction score [38]: 1.46
interaction score [39]: -1.66
interaction score [40]: 1.15
interaction score [41]: 1.96
interaction score [42]: 2.18
interaction score [43]: -1.37
interaction score [44]: -0.901
interaction score [45]: 0.924
interaction score [46]: 1.97
interaction score [47]: -1.17
interaction score [48]: -0.0189
interaction score [49]: -0.622
interaction score [50]: 1.37
interaction score [51]: -1.21
interaction score [52]: 1.85
interaction score [53]: -0.497
interaction score [54]: -0.747
interaction score [55]: 1.94
interaction score [56]: -1.09
interaction score [57]: -1.33
Binder: DKIAALKAENAALEAKIAALKAEIAALEG [4H2729-AA]
